The text below walks through data of patent US20200255516A1.

The target of this assay is Full-length human TIGIT on CHO cells overexpressing TIGIT (human) (UniProt Q495A1). Put plainly: FACS blocking assay on TIGIT-CHO cells; competitor CF633-labeled CD155-Fc at 2 ug/ml.

The term pIC50 denotes the IC50 on a negative log10 scale, so that one unit is a factor of ten.

pIC50: −log10 of the molar value. Some results are limits rather than exact numbers.

Chain of Full-length human TIGIT on CHO cells overexpressing TIGIT (human) (Q495A1 22-244 limits assumed): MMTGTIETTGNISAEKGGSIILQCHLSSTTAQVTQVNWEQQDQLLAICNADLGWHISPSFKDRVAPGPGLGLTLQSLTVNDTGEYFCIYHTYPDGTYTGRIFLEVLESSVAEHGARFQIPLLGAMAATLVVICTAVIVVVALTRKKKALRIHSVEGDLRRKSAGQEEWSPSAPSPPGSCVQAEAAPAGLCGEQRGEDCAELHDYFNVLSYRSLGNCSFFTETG

Turning to human IgG4 antibody (hIgG4), the pIC50 is below 5.00.
